Results on two molecules are retold here after US20210095041A1 (published 2021).

Experiment [1] addresses Clone #1. In words: MSD-SET; Fab.
Experiment [2] concerns the target Clone #20. Put plainly: MSD-SET; Fab.
The target of experiment [3] is Clone #14. In words: MSD-SET; Fab.
The target in experiment [4] is Clone #15. Put plainly: MSD-SET; Fab.
Experiment [5] addresses Clone #13. In words: MSD-SET; Fab.
Experiment [6] addresses Clone #17. Put plainly: MSD-SET; Fab.
The target in experiment [7] is Clone #18. Put plainly: MSD-SET; Fab.
Experiment [8] has as its target Clone #1. Put plainly: BLI (ForteBio Octet); IgG, monovalent.
The target in experiment [9] is Clone #20. Put plainly: BLI (ForteBio Octet); IgG, monovalent.
For experiment [10], the target named is Clone #6. In words: BLI (ForteBio Octet); IgG, monovalent. Background: BLI is a label-free optical method that tracks binding on a fibre tip over time.
For experiment [11], the target named is Clone #2. In words: BLI (ForteBio Octet); IgG, monovalent.
In experiment [12] the target is Clone #14. In words: BLI (ForteBio Octet); IgG, monovalent.
The target in experiment [13] is Clone #8. In words: BLI (ForteBio Octet); IgG, monovalent.
Experiment [14] concerns the target Clone #10. In words: BLI (ForteBio Octet); IgG, monovalent.
Experiment [15] addresses Clone #15. Put plainly: BLI (ForteBio Octet); IgG, monovalent.
For experiment [16], the target named is Clone #13. In words: BLI (ForteBio Octet); IgG, monovalent.
Experiment [17] has as its target Clone #12. In words: BLI (ForteBio Octet); IgG, monovalent.
The target of experiment [18] is Clone #5. Put plainly: BLI (ForteBio Octet); IgG, monovalent.
Experiment [19] deals with Clone #7. Put plainly: BLI (ForteBio Octet); IgG, monovalent.
The target in experiment [20] is Clone #9. In words: BLI (ForteBio Octet); IgG, monovalent.
The target in experiment [21] is Clone #16. Put plainly: BLI (ForteBio Octet); IgG, monovalent.
Experiment [22] has as its target Clone #17. Put plainly: BLI (ForteBio Octet); IgG, monovalent.
Experiment [23] has as its target Clone #11. In words: BLI (ForteBio Octet); IgG, monovalent.
Experiment [24] has as its target Clone #19. Put plainly: BLI (ForteBio Octet); IgG, monovalent.
Experiment [25] has as its target Clone #4. Put plainly: BLI (ForteBio Octet); IgG, monovalent.
Experiment [26] deals with Clone #18. Put plainly: BLI (ForteBio Octet); IgG, monovalent.
The target of experiment [27] is Clone #3. In words: BLI (ForteBio Octet); IgG, monovalent.

For orientation: Kd means the constant that tells how readily two partners part at equilibrium.

B1: Biotinylated Human CD39-His (enzyme)
chain: TQNKALPENVKYGIVLDAGSSHTSLYIYKWPAEKENDTGVVHQVEECRVKGPGISKFVQKVNEIGIYLTDCMERAREVIPRSQHQETPVYLGATAGMRLLRMESEELADRVLDVVERSLSNYPFDFQGARIITGQEEGAYGWITINYLLGKFSQKTRWFSIVPYETNNQETFGALDLGGASTQVTFVPQNQTIESPDNALQFRLYGKDYNVYTHSFLCYGKDQALWQKLAKDIQVASNEILRDPCFHPGYKKVVNVSDLYKTPCTKRFEMTLPFQQFEIQGIGNYQQCHQSILELFNTSYCPYSQCAFNGIFLPPLQGDFGAFSAFYFVMKFLNLTSEKVSQEKVTEMMKKFCAQPWEEIKTSYAGVKEKYLSEYCFSGTYILSLLLQGYHFTADSWEHIHFIGKIQGSDAGWTLGYMLNLTNMIPAEQPLSTPLSHSTYV
As to B1, the Kd in experiment [1] turned out to be 2.1 nM; in experiment [2], 0.61 nM; in experiment [3], 0.15 nM; in [4], 0.38 nM; in experiment [5], 0.17 nM; in experiment [6] it was 0.099 nM. Moreover, the Kd in experiment [7] turned out to be 0.038 nM.

B2: Human CD39-His (enzyme)
chain: B1 chain
Turning to B2, the Kd in [8] turned out to be 8.04 nM; in experiment [9], 3.89 nM; in experiment [10] it was 177 nM; in [11] it was 11.6 nM; in experiment [12] it was 1.25 nM; in experiment [13], 28.3 nM. Further, the Kd in experiment [14] was 37.3 nM; in experiment [15], 1.97 nM; in experiment [16], 1.19 nM; in [17], 1.38 nM; in experiment [18], 29.6 nM; in experiment [19] it was 94.3 nM. Further, the Kd in experiment [20] was determined as 124 nM; in experiment [21], 3.81 nM; in [22], 1.14 nM; in experiment [23], 14.7 nM; in [24], 28.3 nM; in experiment [25] it was 3.65 nM. Moreover, the figures for the Kd in experiment [26] and in experiment [27] were 0.706 nM and 3.25 nM, respectively.
